The source of these data is US20120329986A1.

Numbered stars: 1 amine (or outer) side, 2 acyl side, 3 side chain; on linkers, the order of the positions; unused ones are H or OH. Square brackets hold non-standard residues; d marks the D form. Primed or numbered codes have the meaning given here. Ends that are not written are not given here. dTrp(2-Me) = Cc1[nH]c2ccccc2c1C[C@@H](N)C(=O)O; azaPhe = O=C(N(Cc1ccccc1)N[*:1])[*:2]; azaLeu = CC(C)CN(N[*:1])C(=O)[*:2]; azaTyr′ = not defined here; HAIC = not defined here; azaGly = NNC(=O)O; Mpa = O=C(O)CCS

Test [1] addresses nonspecific proteins present in blood serum. In words: SPR, mass of serum proteins adsorbed on the peptide self-assembled monolayer on gold. In general terms: SPR reads the build-up and loss of mass on a sensor chip optically.
For test [2], the target named is CD36 receptor (in the src-kinase cellular assay). Put plainly: cell-based or functional assay.
Test [3] deals with recombinant soluble His-tagged CD36. Put plainly: SPR, His-tagged CD36 held on the Cu-NTA peptide monolayer, linear Langmuir plot.

In general, Kd refers to the concentration at which binding is half-saturated.

Chain of recombinant soluble His-tagged CD36 (P16671 30-439): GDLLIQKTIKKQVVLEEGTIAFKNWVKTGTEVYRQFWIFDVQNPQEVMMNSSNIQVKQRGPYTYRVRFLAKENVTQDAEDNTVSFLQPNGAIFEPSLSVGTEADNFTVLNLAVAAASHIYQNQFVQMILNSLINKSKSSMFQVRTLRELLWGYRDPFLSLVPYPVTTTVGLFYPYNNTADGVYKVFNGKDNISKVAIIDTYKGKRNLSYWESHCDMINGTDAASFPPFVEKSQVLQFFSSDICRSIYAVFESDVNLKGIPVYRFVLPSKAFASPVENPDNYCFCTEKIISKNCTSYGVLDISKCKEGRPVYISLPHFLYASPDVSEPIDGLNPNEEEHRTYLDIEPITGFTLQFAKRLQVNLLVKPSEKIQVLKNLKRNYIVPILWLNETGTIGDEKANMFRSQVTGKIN

B1: 3-MPA-GGHHDD-OH (peptide)
peptide: [Mpa]GGHHDD-OH
SMILES: O=C(O)C[C@H](NC(=O)[C@H](CC(=O)O)NC(=O)[C@H](Cc1c[nH]cn1)NC(=O)[C@H](Cc1c[nH]cn1)NC(=O)CNC(=O)CNC(=O)CCS)C(=O)O
In the case of B1, the nonspecific adsorption (ΔΓnonspecific) in test [1] is 149 ng/cm^2.

B2: 3-MPA-LHDLHD-OH (peptide)
peptide: [Mpa]LHDLHD-OH
SMILES: CC(C)C[C@H](NC(=O)CCS)C(=O)N[C@@H](Cc1c[nH]cn1)C(=O)N[C@@H](CC(=O)O)C(=O)N[C@@H](CC(C)C)C(=O)N[C@@H](Cc1c[nH]cn1)C(=O)N[C@@H](CC(=O)O)C(=O)O
As to B2, the nonspecific adsorption (ΔΓnonspecific) in test [1] was determined as 12 ng/cm^2.

B3: 3-MPA-LLLDD (peptide)
peptide: [Mpa]LLLDD
The molecule B3 had a nonspecific adsorption (ΔΓnonspecific) in test [1] of 35 ng/cm^2.

B4: 3-MPA-HHHDD (peptide)
peptide: [Mpa]HHHDD
Turning to B4, the nonspecific adsorption (ΔΓnonspecific) in test [1] stood at 32 ng/cm^2.

B5: CP-2B(i) (peptide)
peptide: H[dW][azaLeu]W[dF]A-NH2
modifications: N-terminus assumed
SMILES: CC(C)CN(NC(=O)[C@@H](Cc1c[nH]c2ccccc12)NC(=O)[C@@H](N)Cc1c[nH]cn1)C(=O)N[C@@H](Cc1c[nH]c2ccccc12)C(=O)N[C@H](Cc1ccccc1)C(=O)N[C@@H](C)C(N)=O
As to B5, the SRC-kinase cellular assay EC50 in test [2] was over 10 µM. Also, the Kd in test [3] is 1.4 µM.

B6: DBG-178(27) (peptide)
peptide: H[dW]A[azaTyr′][dF]K-NH2
The molecule B6 registered an SRC-kinase cellular assay EC50 in test [2] of 0.063 µM. The Kd in test [3] was found to be 0.022 µM.

B7: 3-MPA-HHHSS (peptide)
peptide: [Mpa]HHHSS
In test [1], B7 registered a nonspecific adsorption (ΔΓnonspecific) of 48 ng/cm^2.

B8: 3-MPA-LLLHH (peptide)
peptide: [Mpa]LLLHH
Take B8: the nonspecific adsorption (ΔΓnonspecific) in test [1] worked out at 45 ng/cm^2.

B9: 3-MPA-LLHHDD-OH (peptide)
peptide: [Mpa]LLHHDD-OH
SMILES: CC(C)C[C@H](NC(=O)CCS)C(=O)N[C@@H](CC(C)C)C(=O)N[C@@H](Cc1c[nH]cn1)C(=O)N[C@@H](Cc1c[nH]cn1)C(=O)N[C@@H](CC(=O)O)C(=O)N[C@@H](CC(=O)O)C(=O)O
For B9, in test [1], the nonspecific adsorption (ΔΓnonspecific) came to 174 ng/cm^2.

B10: 3-MPA-SHDSHD-OH (peptide)
peptide: [Mpa]SHDSHD-OH
SMILES: O=C(O)C[C@H](NC(=O)[C@H](Cc1c[nH]cn1)NC(=O)[C@H](CO)NC(=O)[C@H](CC(=O)O)NC(=O)[C@H](Cc1c[nH]cn1)NC(=O)[C@H](CO)NC(=O)CCS)C(=O)O
In the case of B10, in test [1], the nonspecific adsorption (ΔΓnonspecific) came out at 17 ng/cm^2.

B11: 3-MPA-DDDHH (peptide)
peptide: [Mpa]DDDHH
With B11, the nonspecific adsorption (ΔΓnonspecific) in test [1] amounted to 56 ng/cm^2.

B12: 3-MPA-SSSDD (peptide)
peptide: [Mpa]SSSDD
In test [1], B12 gave a nonspecific adsorption (ΔΓnonspecific) of 23 ng/cm^2.

B13: EP80317 (peptide)
peptide: [HAIC][dTrp(2-Me)][dK]W[dF]K-NH2
modifications: reading uncertain
On to B13, for which the Kd in test [3] is 0.082 µM.

B14: 3-MPA-SSSHH (peptide)
peptide: [Mpa]SSSHH
Regarding B14, the nonspecific adsorption (ΔΓnonspecific) in test [1] is 79 ng/cm^2.

B15: 3-MPA-DSDSD-OH (peptide)
peptide: [Mpa]DSDSD-OH
SMILES: O=C(O)C[C@H](NC(=O)[C@H](CO)NC(=O)[C@H](CC(=O)O)NC(=O)[C@H](CO)NC(=O)[C@H](CC(=O)O)NC(=O)CCS)C(=O)O
For B15, the nonspecific adsorption (ΔΓnonspecific) in test [1] amounted to 34 ng/cm^2.

B16: CP-2A(v) (peptide)
peptide: H[dW][azaGly]W[dF]K-NH2
In the case of B16, the SRC-kinase cellular assay EC50 in test [2] is 0.026 µM. Moreover, the Kd in test [3] came out at 0.044 µM.

B17: 3-MPA-LLLSS (peptide)
peptide: [Mpa]LLLSS
Regarding B17, the nonspecific adsorption (ΔΓnonspecific) in test [1] was determined as 39 ng/cm^2.

B18: 3-MPA-DDDSS (peptide)
peptide: [Mpa]DDDSS
Regarding B18, the nonspecific adsorption (ΔΓnonspecific) in test [1] amounted to 69 ng/cm^2.

B19: CP-3(iv) (peptide)
peptide: A[dW]A[azaPhe][dF]K-NH2
modifications: N-terminus assumed
SMILES: C[C@H](N)C(=O)N[C@H](Cc1c[nH]c2ccccc12)C(=O)N[C@@H](C)C(=O)NN(Cc1ccccc1)C(=O)N[C@H](Cc1ccccc1)C(=O)N[C@@H](CCCCN)C(N)=O
As to B19, the SRC-kinase cellular assay EC50 in test [2] was 0.044 µM. Moreover, the Kd in test [3] stood at 0.38 µM.

B20: 3-MPA-DHDHD-OH (peptide)
peptide: [Mpa]DHDHD-OH
SMILES: O=C(O)C[C@H](NC(=O)[C@H](Cc1c[nH]cn1)NC(=O)[C@H](CC(=O)O)NC(=O)[C@H](Cc1c[nH]cn1)NC(=O)[C@H](CC(=O)O)NC(=O)CCS)C(=O)O
For B20, in test [1], the nonspecific adsorption (ΔΓnonspecific) worked out at 274 ng/cm^2.

B21: 3-MPA-GGGGD-OH (peptide)
peptide: [Mpa]GGGGD-OH
SMILES: O=C(O)C[C@H](NC(=O)CNC(=O)CNC(=O)CNC(=O)CNC(=O)CCS)C(=O)O
As for B21, the nonspecific adsorption (ΔΓnonspecific) in test [1] was 218 ng/cm^2.
